Reference: paper PMC10547193

Experiments:
[1] = molecular target: CVA10-WT viral particles (coxsackievirus A10 prototype strain Kowalik, mature virion) (coxsackievirus A10 (strain Kowalik))
[2] = molecular target: CVA10 escape mutant N2142D+N3183Y (coxsackievirus A10 strain Kowalik with VP2 N142D and VP3 N183Y) (coxsackievirus A10 (strain Kowalik))
[3] = molecular target: CVA10-N142A viral particles (coxsackievirus A10 strain Kowalik with VP2 N142A) (coxsackievirus A10 (strain Kowalik))

B1: human KRM1-Fc (ectodomain of human KREMEN1 fused to the Fc portion of human IgG1) (Fc fusion)
chain: APSPGLGPECFTANGADYRGTQNWTALQGGKPCLFWNETFQHPYNTLKYPNGEGGLGEHNYCRNPDGDVSPWCYVAEHEDGVYWKYCEIPACQMPGNLGCYKDHGNPPPLTGTSKTSNKLTIQTCISFCRSQRFKFAGMESGYACFCGNNPDYWKYGEAASTECNSVCFGDHTQPCGGDGRIILFDTLVGACGGNYSAMSSVVYSPDFPDTYATGRVCYWTIRVPGASHIHFSFPLFDIRDSADMVELLDGYTHRVLARFHGRSRPPLSFNVSLDFVILYFFSDRINQAQGFAVLYQAVKEELPQERPAVNQTVAEVITEQANLSVSAARSSKVLYVITTSPSHPPQTVPG
modifications: biotin (EZ-Link Sulfo-NHS-LC-LC-Biotin) in the ELISA
With B1 the neutralization concentration (100% protection from CPE) of KRM1-Fc against CVA10 prototype strain Kowalik in RD cells [1] was 12.5 nM, the change of the neutralization concentration of KRM1-Fc against the mutant relative to CVA10-WT (standard neutralization assay, RD cells) [2] was over 128 times and the resistance to neutralization by KRM1-Fc relative to rescued CVA10-WT (neutralization assay, RD cells) [3] was 64 fold.
